To fix the notation:
B1: GST-tagged Sch9 (GST-Sch9) [S. cerevisiae] / Gap1 peptide 222-GVKGYGEAEFVFSFI-236 [S. cerevisiae] (parent complex)
chain 1: MMNFFTSKSSNQDTGFSSQHQHPNGQNNGNNNSSTAGNDNGYPCKLVSSGPCASSNNGALFTNFTLQTATPTTAISQDLYAMGTTGITSENALFQMKSMNNGISSVNNNNSNTPTIITTSQEETNAGNVHGDTGGNSLQNSEDDNFSSSSTTKCLLSSTSSLSINQREAAAAAYGPDTDIPRGKLEVTIIEARDLVTRSKDSQPYVVCTFESSEFISNGPESLGAINNNNNNNNNNQHNQNQHINNNNENTNPDAASQHHNNNSGWNGSQLPSIKEHLKKKPLYTHRSSSQLDQLNSCSSVTDPSKRSSNSSSGSSNGPKNDSSHPIWHHKTTFDVLGSHSELDISVYDAAHDHMFLGQVRLYPMIHNLAHASQHQWHSLKPRVIDEVVSGDILIKWTYKQTKKRHYGPQDFEVLRLLGKGTFGQVYQVKKKDTQRIYAMKVLSKKVIVKKNEIAHTIGERNILVTTASKSSPFIVGLKFSFQTPTDLYLVTDYMSGGELFWHLQKEGRFSEDRAKFYIAELVLALEHLHDNDIVYRDLKPENILLDANGNIALCDFGLSKADLKDRTNTFCGTTEYLAPELLLDETGYTKMVDFWSLGVLIFEMCCGWSPFFAENNQKMYQKIAFGKVKFPRDVLSQEGRSFVKGLLNRNPKHRLGAIDDGRELRAHPFFADIDWEALKQKKIPPPFKPHLVSETDTSNFDPEFTTASTSYMNKHQPMMTATPLSPAMQAKFAGFTFVDESAIDEHVNNNRKFLQNSYFMEPGSFIPGNPNLPPDEDVIDDDGDEDINDGFNQEKNMNNSHSQMDFDGDQHMDDEFVSGRFEI
chain 2: GVKGYGEAEFVFSFI
B2: GST-tagged Sch9 (GST-Sch9) [S. cerevisiae] / HA-tagged wild type Gap1 (HA-Gap1) [S. cerevisiae] (parent complex)
chain 1: B1 chain 1
chain 2: MSNTSSYEKNNPDNLKHNGITIDSEFLTQEPITIPSNGSAVSIDETGSGSKWQDFKDSFKRVKPIEVDPNLSEAEKVAIITAQTPLKHHLKNRHLQMIAIGGAIGTGLLVGSGTALRTGGPASLLIGWGSTGTMIYAMVMALGELAVIFPISGGFTTYATRFIDESFGYANNFNYMLQWLVVLPLEIVSASITVNFWGTDPKYRDGFVALFWLAIVIINMFGVKGYGEAEFVFSFIKVITVVGFIILGIILNCGGGPTGGYIGGKYWHDPGAFAGDTPGAKFKGVCSVFVTAAFSFAGSELVGLAASESVEPRKSVPKAAKQVFWRITLFYILSLLMIGLLVPYNDKSLIGASSVDAAASPFVIAIKTHGIKGLPSVVNVVILIAVLSVGNSAIYACSRTMVALAEQRFLPEIFSYVDRKGRPLVGIAVTSAFGLIAFVAASKKEGEVFNWLLALSGLSSLFTWGGICICHIRFRKALAAQGRGLDELSFKSPTGVWGSYWGLFMVIIMFIAQFYVAVFPVGDSPSAEGFFEAYLSFPLVMVMYIGHKIYKRNWKLFIPAEKMDIDTGRREVDLDLLKQEIAEEKAIMATKPRWYRIWNFWC

This note sets out measurements from paper PMC7850899, “Nutrient transceptors physically interact with the yeast S6/protein kinase B homolog, Sch9, a TOR kinase target” (Biochemical Journal, 2021).

In the first test the parent is B1. In words: substitution peptide microarray; 100 or 500 µg/ml GST-Sch9; parent: 100; read off a plot.
For the variant chain 2 G6F, the percent of parent was ~330 % of wild type peptide.
Consider chain 2 I15E, for which the percent of parent is ~150 % of wild type peptide.
As for chain 2 S13C, the percent of parent was ~240 % of wild type peptide.
As for chain 2 G1F, the percent of parent is ~140 % of wild type peptide.

A further test covers variants of B2. Kind of test: GST pull-down assay; parent: 100.
In the case of chain 2 F231D, chain 2 V232K, chain 2 F233D, the percent of parent was 102 % of Gap1WT.
chain 2 V232K: the percent of parent is 86.9 % of Gap1WT.
For chain 2 F233D, the percent of parent was 138 % of Gap1WT.
As to chain 2 F231D, the percent of parent is 98.9 % of Gap1WT.
